In paper PMC10467612 (RSC Chemical Biology, 2023):
Values belong to the molecule of their own block, whether it stands above or below them.

Tests used:
NC(Cc1cccc(F)c1)C(=O)O = assay: adenylation saturation kinetics; type: biochemical, Aneurinibacillus migulanus; conditions: ATP A-domain binding pocket enlarged by W239S
NC(Cc1ccccc1F)C(=O)O = assay: adenylation saturation kinetics; type: biochemical, Aneurinibacillus migulanus; conditions: ATP A-domain binding pocket enlarged by W239S
GrsA = biological target: T1, GrsA (Aneurinibacillus migulanus, UniProt P0C061); assay: isothermal titration calorimetry; type: binding
T1 sequence (P0C061 1-428 limits assumed): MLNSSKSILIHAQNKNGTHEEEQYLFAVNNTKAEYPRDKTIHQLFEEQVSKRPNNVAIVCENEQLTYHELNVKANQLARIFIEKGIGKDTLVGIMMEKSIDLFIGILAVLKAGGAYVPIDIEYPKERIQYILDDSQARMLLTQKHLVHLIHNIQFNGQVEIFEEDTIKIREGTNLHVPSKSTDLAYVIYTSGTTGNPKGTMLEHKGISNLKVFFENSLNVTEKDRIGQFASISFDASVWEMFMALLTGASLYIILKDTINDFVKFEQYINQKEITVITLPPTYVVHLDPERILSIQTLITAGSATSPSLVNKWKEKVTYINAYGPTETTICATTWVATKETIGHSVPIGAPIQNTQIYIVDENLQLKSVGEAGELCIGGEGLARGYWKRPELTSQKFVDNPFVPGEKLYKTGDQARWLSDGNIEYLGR

[1] = substrate: NC(Cc1cc(F)cc(F)c1)C(=O)O; assay: adenylation saturation kinetics; type: biochemical, Aneurinibacillus migulanus; conditions: ATP A-domain binding pocket; T-shaped aromatic interaction with Trp239
[2] = substrate: NC(Cc1cccc(F)c1)C(=O)O; assay: adenylation saturation kinetics; type: biochemical, Aneurinibacillus migulanus; conditions: ATP A-domain binding pocket; T-shaped aromatic interaction with Trp239
[3] = substrate: NC(Cc1ccccc1F)C(=O)O; assay: adenylation saturation kinetics; type: biochemical, Aneurinibacillus migulanus; conditions: ATP A-domain binding pocket; T-shaped aromatic interaction with Trp239
[4] = substrate: CC(C)(F)C(N)C(=O)O; assay: adenylation saturation kinetics; type: biochemical, Bacillus subtilis; conditions: ATP
[5] = substrate: CC(C)C(N)C(=O)O; assay: adenylation saturation kinetics; type: biochemical, Bacillus subtilis; conditions: ATP

Molecule: GrsA-W239S (Aneurinibacillus migulanus; W239S)
- Km (NC(Cc1cccc(F)c1)C(=O)O): 900 ± 100 µM
- kcat (NC(Cc1cccc(F)c1)C(=O)O): 0.233 ± 0.0167 s⁻¹
- kcat/Km (NC(Cc1cccc(F)c1)C(=O)O): 250 M⁻¹ s⁻¹
- Km (NC(Cc1ccccc1F)C(=O)O): 3000 ± 1000 µM
- kcat (NC(Cc1ccccc1F)C(=O)O): 0.667 ± 0.167 s⁻¹
- kcat/Km (NC(Cc1ccccc1F)C(=O)O): 267 M⁻¹ s⁻¹

- Kd (GrsA): 60 ± 10 µM
Molecule: NC(Cc1ccccc1)C(=O)O (racemic) [Phe]

B1: GrsA (Aneurinibacillus migulanus) (protein)
chain: MLNSSKSILIHAQNKNGTHEEEQYLFAVNNTKAEYPRDKTIHQLFEEQVSKRPNNVAIVCENEQLTYHELNVKANQLARIFIEKGIGKDTLVGIMMEKSIDLFIGILAVLKAGGAYVPIDIEYPKERIQYILDDSQARMLLTQKHLVHLIHNIQFNGQVEIFEEDTIKIREGTNLHVPSKSTDLAYVIYTSGTTGNPKGTMLEHKGISNLKVFFENSLNVTEKDRIGQFASISFDASVWEMFMALLTGASLYIILKDTINDFVKFEQYINQKEITVITLPPTYVVHLDPERILSIQTLITAGSATSPSLVNKWKEKVTYINAYGPTETTICATTWVATKETIGHSVPIGAPIQNTQIYIVDENLQLKSVGEAGELCIGGEGLARGYWKRPELTSQKFVDNPFVPGEKLYKTGDQARWLSDGNIEYLGRIDNQVKIRGHRVELEEVESILLKHMYISETAVSVHKDHQEQPYLCAYFVSEKHIPLEQLRQFSSEELPTYMIPSYFIQLDKMPLTSNGKIDRKQLPEPDLTFGMRVDYEAPRNEIEETLVTIWQDVLGIEKIGIKDNFYALGGDSIKAIQVAARLHSYQLKLETKDLLKYPTIDQLVHYIKDSKRRSEQGIVEGEIGLTPIQHWFFEQQFTNMHHWNQSYMLYRPNGFDKEILLRVFNKIVEHHDALRMIYKHHNGKIVQINRGLEGTLFDFYTFDLTANDNEQQVICEESARLQNSINLEVGPLVKIALFHTQNGDHLFMAIHHLVVDGISWRILFEDLATAYEQAMHQQTIALPEKTDSFKDWSIELEKYANSELFLEEAEYWHHLNYYTENVQIKKDYVTMNNKQKNIRYVGMELTIEETEKLLKNVNKAYRTEINDILLTALGFALKEWADIDKIVINLEGHGREEILEQMNIARTVGWFTSQYPVVLDMQKSDDLSYQIKLMKENLRRIPNKGIGYEIFKYLTTEYLRPVLPFTLKPEINFNYLGQFDTDVKTELFTRSPYSMGNSLGPDGKNNLSPEGESYFVLNINGFIEEGKLHITFSYNEQQYKEDTIQQLSRSYKQHLLAIIEHCVQKEDTELTPSDFSFKELELEEMDDIFDLLADSLT
- Km [1]: 14 ± 3 µM
- kcat [1]: 0.517 ± 0.0333 s⁻¹
- kcat/Km [1]: 36700 M⁻¹ s⁻¹
- Km [2]: 14 ± 5 µM
- kcat [2]: 0.35 ± 0.0333 s⁻¹
- kcat/Km [2]: 25000 M⁻¹ s⁻¹
- Km [3]: 20 ± 2 µM
- kcat [3]: 0.458 ± 0.0133 s⁻¹
- kcat/Km [3]: 23300 M⁻¹ s⁻¹

B2: SrfA-B1 (Bacillus subtilis subsp. subtilis str. 168) (protein)
chain: ASTAVVYEGTKLTYRELNAAANRLARKLVEHGLQKGETAAIMNDRSVETVVGMLAVLKAGAAYVPLDPALPGDRLRFMAEDSSVRMVLIGNSYTGQAHQLQVPVLTLDIGFEESEAADNLNLPSAPSDLAYIMYTSGSTGKPKGVMIEHKSILRLVKNAGYVPVTEEDRMAQTGAVSFDAGTFEVFGALLNGAALYPVKKETLLDAKQFAAFLREQSITTMWLTSPLFNQLAAKDAGMFGTLRHLIIGGDALVPHIVSKVKQASPSLSLWNGYGPTENTTFSTSFLIDREYGGSIPIGKPIGNSTAYIMDEQQCLQPIGAPGELCVGGIGVARGYVNLPELTEKQFLEDPFRPGERIYRTGDLARWLPDGNIEFLGRIDNQVKVRGFRIELGEIETKLNMAEHVTEAAVIIRKNKADENEICAYFTADREVAVSELRKTLSQSLPDYMVPAHLIQMDSLPLTPNGKINKKELPAPQSEAVQ
- Km [4]: 8000 ± 1000 µM
- kcat [4]: 0.467 ± 0.05 s⁻¹
- kcat/Km [4]: 58.3 M⁻¹ s⁻¹
- Km [5]: 60 ± 20 µM
- kcat [5]: 0.133 ± 0.0333 s⁻¹
- kcat/Km [5]: 2330 M⁻¹ s⁻¹
